{"source": "paper PMC7502788", "experiment_in_all_cases": "BLI", "key": {"[1]": {"target": "TBTI_13C3x8D3_mIgG1 (mouse)"}, "[2]": {"target": "TBTI_13C3x8D3_HC_Y52A/LC_Y92A_mIgG1 (mouse)"}, "[3]": {"target": "TBTI_13C3x8D3 HC_S101A_mIgG1 (mouse)"}, "[4]": {"target": "TBTI_13C3x8D3 LC_N31A_mIgG1 (mouse)"}, "[5]": {"target": "TBTI_13C3x8D3_HC_N31A/LC_Y92A_mIgG1 (mouse)"}, "[6]": {"target": "TBTI_13C3x8D3 LC_G68I_mIgG1 (mouse)"}, "[7]": {"target": "TBTI_13C3x8D3 HC_Y52A_mIgG1 (mouse)"}, "[8]": {"target": "TBTI_13C3x8D3_HC_Y52A/LC_Y49A_mIgG1 (mouse)"}, "Anti-mTfRC 8D3 (mouse)": {"target": "Anti-mTfRC 8D3 (mouse)"}, "[9]": {"target": "TBTI_13C3x8D3 LC_N93A_mIgG1 (mouse)"}, "[10]": {"target": "TBTI_8D3x13C3_mIgG1 (mouse)"}, "[11]": {"target": "TBTI_13C3x8D3 LC_Y49A_mIgG1 (mouse)"}, "[12]": {"target": "TBTI_13C3x8D3_HC_Y52A-S101A/LC_Y49A-Y92A-mIgG1 (mouse)"}, "[13]": {"target": "TBTI_13C3x8D3 HC_N31A_mIgG1 (mouse)"}, "[14]": {"target": "TBTI_13C3x8D3 HC_Y53A_mIgG1 (mouse)"}, "[15]": {"target": "TBTI_13C3x8D3_HC_S101A/LC_Y92A_mIgG1 (mouse)"}, "[16]": {"target": "TBTI_13C3x8D3 LC_Y92A_mIgG1 (mouse)"}, "[17]": {"target": "TBTI_13C3x8D3 HC_T100A_mIgG1 (mouse)"}}}
{"substance": "mouse transferrin receptor protein (mTfR), Sino Biological 50741-M07H (from UniProt Q62351 89-763)", "values": [{"measurement": "Kd", "setting": "[1]", "result": 2.83, "unit": "nM"}, {"measurement": "koff", "setting": "[1]", "result": "9.9e-05", "unit": "s⁻¹"}, {"measurement": "kon", "setting": "[1]", "result": 35300, "unit": "M⁻¹ s⁻¹"}, {"measurement": "Kd", "setting": "[2]", "result": 29.2, "unit": "nM"}, {"measurement": "koff", "setting": "[2]", "result": 0.000734, "unit": "s⁻¹"}, {"measurement": "kon", "setting": "[2]", "result": 25200, "unit": "M⁻¹ s⁻¹"}, {"measurement": "Kd", "setting": "[3]", "result": 8.96, "unit": "nM"}, {"measurement": "koff", "setting": "[3]", "result": 0.000258, "unit": "s⁻¹"}, {"measurement": "kon", "setting": "[3]", "result": 28800, "unit": "M⁻¹ s⁻¹"}, {"measurement": "Kd", "setting": "[4]", "result": 2.18, "unit": "nM"}, {"measurement": "koff", "setting": "[4]", "result": "5.4e-05", "unit": "s⁻¹"}, {"measurement": "koff", "setting": "[5]", "result": 0.000553, "unit": "s⁻¹"}, {"measurement": "kon", "setting": "[5]", "result": 62100, "unit": "M⁻¹ s⁻¹"}, {"measurement": "Kd", "setting": "[6]", "result": 3.84, "unit": "nM"}, {"measurement": "koff", "setting": "[6]", "result": 0.000105, "unit": "s⁻¹"}, {"measurement": "kon", "setting": "[6]", "result": 27200, "unit": "M⁻¹ s⁻¹"}, {"measurement": "Kd", "setting": "[7]", "result": 17.9, "unit": "nM"}, {"measurement": "koff", "setting": "[7]", "result": 0.000521, "unit": "s⁻¹"}, {"measurement": "kon", "setting": "[7]", "result": 29200, "unit": "M⁻¹ s⁻¹"}, {"measurement": "koff", "setting": "[8]", "result": 0.000689, "unit": "s⁻¹"}, {"measurement": "kon", "setting": "[8]", "result": 793000, "unit": "M⁻¹ s⁻¹"}, {"measurement": "Kd", "setting": "Anti-mTfRC 8D3 (mouse)", "result": 0.54, "unit": "nM"}, {"measurement": "koff", "setting": "Anti-mTfRC 8D3 (mouse)", "result": "3.9e-05", "unit": "s⁻¹"}, {"measurement": "kon", "setting": "Anti-mTfRC 8D3 (mouse)", "result": 71300, "unit": "M⁻¹ s⁻¹"}, {"measurement": "Kd", "setting": "[9]", "result": 4.16, "unit": "nM"}, {"measurement": "koff", "setting": "[9]", "result": 0.000112, "unit": "s⁻¹"}, {"measurement": "kon", "setting": "[9]", "result": 27100, "unit": "M⁻¹ s⁻¹"}, {"measurement": "Kd", "setting": "[10]", "result": 0.4, "unit": "nM"}, {"measurement": "koff", "setting": "[10]", "result": "2.9e-05", "unit": "s⁻¹"}, {"measurement": "kon", "setting": "[10]", "result": 74400, "unit": "M⁻¹ s⁻¹"}, {"measurement": "Kd", "setting": "[11]", "result": 4.46, "unit": "nM"}, {"measurement": "koff", "setting": "[11]", "result": "9.9e-05", "unit": "s⁻¹"}, {"measurement": "kon", "setting": "[11]", "result": 22100, "unit": "M⁻¹ s⁻¹"}, {"measurement": "Kd", "setting": "[12]", "result": 19.6, "unit": "nM"}, {"measurement": "koff", "setting": "[12]", "result": 0.00111, "unit": "s⁻¹"}, {"measurement": "kon", "setting": "[12]", "result": 32600, "unit": "M⁻¹ s⁻¹"}, {"measurement": "Kd", "setting": "[13]", "result": 6.61, "unit": "nM"}, {"measurement": "koff", "setting": "[13]", "result": 0.000159, "unit": "s⁻¹"}, {"measurement": "Kd", "setting": "[14]", "result": 4.25, "unit": "nM"}, {"measurement": "koff", "setting": "[14]", "result": 0.000124, "unit": "s⁻¹"}, {"measurement": "kon", "setting": "[14]", "result": 29200, "unit": "M⁻¹ s⁻¹"}, {"measurement": "Kd", "setting": "[15]", "result": 6.94, "unit": "nM"}, {"measurement": "koff", "setting": "[15]", "result": 0.000357, "unit": "s⁻¹"}, {"measurement": "kon", "setting": "[15]", "result": 51400, "unit": "M⁻¹ s⁻¹"}, {"measurement": "Kd", "setting": "[16]", "result": 6.88, "unit": "nM"}, {"measurement": "koff", "setting": "[16]", "result": 0.000149, "unit": "s⁻¹"}, {"measurement": "kon", "setting": "[16]", "result": 21700, "unit": "M⁻¹ s⁻¹"}, {"measurement": "Kd", "setting": "[17]", "result": 3.83, "unit": "nM"}, {"measurement": "koff", "setting": "[17]", "result": 0.000233, "unit": "s⁻¹"}, {"measurement": "kon", "setting": "[17]", "result": 60800, "unit": "M⁻¹ s⁻¹"}]}
